Data taken from patent US20260209334A1 (MAX PLANCK GESELLSCHAFT ZUR F RDERUNG DER WISSENSCHAFTEN E V, published 2026).

What was measured:
[1] = target: recombinant human IL-17A (produced in HEK cells, Proteintech HZ-1113) (human, UniProt Q16552 24-155); assay: cell-based or functional assay
[2] = target: T1, recombinant human IL-17F (produced in HEK cells, Proteintech HZ-1116) (human, UniProt Q96PD4 31-163); assay: cell-based or functional assay
T1 sequence (looked up): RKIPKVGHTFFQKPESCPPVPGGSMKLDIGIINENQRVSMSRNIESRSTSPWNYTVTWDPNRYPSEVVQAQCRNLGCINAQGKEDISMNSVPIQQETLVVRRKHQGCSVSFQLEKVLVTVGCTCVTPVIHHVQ

[3] = target: recombinant human IL-17A/F (produced in CHO cells, R&D Systems 5837-IL) (human, UniProt Q16552 24-155; Q96PD4 31-163, limits assumed); assay: cell-based or functional assay
Sequence of recombinant human IL-17A/F (produced in CHO cells, R&D Systems 5837-IL) (Q16552 24-155 limits assumed, chain 1 of 2, one chain of several): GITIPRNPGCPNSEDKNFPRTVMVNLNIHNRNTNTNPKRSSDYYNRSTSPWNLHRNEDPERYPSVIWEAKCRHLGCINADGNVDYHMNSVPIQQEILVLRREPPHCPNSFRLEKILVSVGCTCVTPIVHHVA

[4] = target: T1, recombinant human IL-17F (produced in …); assay: cell-based or functional assay; remark: listed apart in the source
[5] = target: T2, human IL-17A with C-terminal Avi-tag, biotinylated, immobilized on BLI sensors (human, UniProt Q16552 24-155, biotin on the C-terminal Avi-tag (BirA)); assay: BLI, biotinylated IL-17A immobilized, monovalent VHH as analyte
T2 construct: also called biotinylated IL-17A; not shown: C-terminal Avi-tag
T2 sequence (Q16552 24-155): as the sequence (Q16552 24-155 limits assumed, chain 1 of 2, one chain of several) above

[6] = target: T3, human IL-17F with C-terminal Avi-tag, biotinylated, immobilized on BLI sensors (human, UniProt Q96PD4 31-163, biotin on the C-terminal Avi-tag (BirA)); assay: BLI, biotinylated IL-17F immobilized, monovalent VHH as analyte
T3 construct: also called biotinylated IL-17F; not shown: C-terminal Avi-tag
T3 sequence: T1 sequence (looked up)

Sequence of recombinant human IL-17A (produced in HEK cells, Proteintech HZ-1113) (Q16552 24-155 limits assumed): as the sequence (Q16552 24-155 limits assumed, chain 1 of 2, one chain of several) above

Neutralization potency, ranking from 1 = the best to 4 (HEK-Blue IL-17 reporter cells) [1]: 2 rank
Neutralization potency, ranking from 1 = the best to 4 (HEK-Blue IL-17 reporter cells) [2]: 4 rank
Neutralization potency, ranking from 1 = the best to 4 (HEK-Blue IL-17 reporter cells) [3]: 2 rank
IC50 (read off the curve), SEAP reporter, HEK-Blue IL-17 cells, 0.85 nM IL-17F [4]: ~0.06 µg/mL
Kd [5]: 0.15 nM
Kd [6]: 12 nM
B1: VHH664 (VHH)
VHH: EVQLVESGGGLVQAGGSLRLSCAASGRTYDAMGWLRQAPGKEREFVAAISGSGDDTYYADSVKGRFTISKDNAGITMYLQMNSLKPEDTAVYYCATRRGLYYVWDSNDYENWGQGTQVTVSS
notes: Control VHH of Ablynx, disclosed in WO2012156219
